The values below come from US20260193313A1 (ALPINE IMMUNE SCIENCES, published 2026).

In assay [1] the target is T1, CD28 (human, UniProt P10747 19-220). Briefly: flow cytometry, 11 nM Fc fusion on Jurkat cells.
The target of assay [2] is T2, CTLA-4 (human, UniProt P16410 36-223).
T2 construct: CHO cells transduced to stably express CTLA-4; also called huCTLA; CHO/CTLA-4
T2 sequence: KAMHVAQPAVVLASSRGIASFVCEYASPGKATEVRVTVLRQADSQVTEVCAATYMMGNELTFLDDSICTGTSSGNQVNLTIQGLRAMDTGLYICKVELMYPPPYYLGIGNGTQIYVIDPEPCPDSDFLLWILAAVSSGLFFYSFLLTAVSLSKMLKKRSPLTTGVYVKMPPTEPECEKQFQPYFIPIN
The experiment in a line: flow cytometry, 11 nM Fc fusion on CHO/CTLA4 transfectants. In general terms: Flow cytometry measures light scatter and fluorescence of single cells or particles in a stream.

Assay [3] addresses T1, CD28. Briefly: flow cytometry, 25 nM Fc fusion on Jurkat cells. As for the experimental part:
(§1) Binding of the CD86 domain variants described above were assayed for binding to CD28 using Jurkat cells or to CTLA-4 using Chinese Hamster Ovary (CHO) cells that were transduced to stably express CTLA-4 (CHO/CTLA-4). For staining by flow cytometry, approximately 100,000 ligand-expressing cells were incubated with various concentrations of each candidate CD86 variant Fc fusion protein. […] To assess binding, cells were stained with an anti-human Fc secondary antibody (Jackson ImmunoResearch, USA), and samples were analyzed on an LSRII (BD Biosciences, Inc., USA) flow cytometer.
(§2) In the Table, the exemplary amino acid substitutions and insertions in the IgV domain are designated by amino acid position number corresponding to amino acid positions in the respective reference unmodified mature CD86 extracellular domain (ECD) sequence set forth in SEQ ID NO:29. The amino acid position is indicated in the middle, with the corresponding unmodified (e.g. wild-type) amino acid listed before the number and the identified variant amino acid substitution listed after the number. Column 2 sets forth the SEQ ID NO identifier for each variant IgV domain contained in the variant IgV-Fc fusion molecule.

Assay [4] addresses T1, CD28. The experiment in a line: cell-based or functional assay.
Assay [5] has as its target T2, CTLA-4. The experiment in a line: flow cytometry, 25 nM Fc fusion on CHO/CTLA4 transfectants. As for the experimental part: as §1, §2
Assay [6] deals with T1, CD28. The experiment in a line: flow cytometry, Jurkat cells expressing CD28, anti-Fc antibody-PE. As for the experimental part:
(§3) To assess binding activity, the exemplary formatted stack constructs were incubated with Jurkat cells expressing CD28, the cognate binding partner of CD86, and with K562 cells transduced to express PDL1, the cognate binding partner of PD-1. The cells (50,000 cells/well) were incubated on ice for 30 min with the formatted stack constructs set forth in Table E7 at various concentrations (starting concentration 100 nM, 8 serial 1:4 dilutions titrated down). Cells were then washed with FACS buffer and resuspended with 50 μL anti-Fc antibody-PE for 30 min. Binding was assessed by flow cytometry and Mean Fluorescence Intensity (MFI) was determined.

In assay [7] the target is T3, PD-L1 (human, UniProt Q9NZQ7 19-290).
T3 construct: also called huPD-L1
The experiment in a line: flow cytometry, K562 cells transduced to express PDL1, anti-Fc antibody-PE. On the procedure:
as §3

T3 sequence (Q9NZQ7 19-290): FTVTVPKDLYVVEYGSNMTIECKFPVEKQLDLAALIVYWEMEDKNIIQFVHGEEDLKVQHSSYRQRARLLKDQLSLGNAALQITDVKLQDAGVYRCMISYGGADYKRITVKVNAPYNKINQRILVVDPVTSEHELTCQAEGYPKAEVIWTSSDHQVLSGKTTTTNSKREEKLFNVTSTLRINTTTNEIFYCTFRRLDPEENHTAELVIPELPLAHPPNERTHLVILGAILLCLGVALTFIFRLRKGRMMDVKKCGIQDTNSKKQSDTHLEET
T1 sequence (P10747 19-220): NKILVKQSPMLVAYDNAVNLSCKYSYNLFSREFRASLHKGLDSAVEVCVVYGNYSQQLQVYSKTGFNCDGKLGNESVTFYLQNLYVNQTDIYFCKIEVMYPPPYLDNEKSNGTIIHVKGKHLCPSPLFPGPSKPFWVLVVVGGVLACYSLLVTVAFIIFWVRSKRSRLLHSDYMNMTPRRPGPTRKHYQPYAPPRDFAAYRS

The molecule “variant CD86 ECD-Fc Q25L/H90L/P185S/P224L (ECD SEQ ID NO: 116) (Fc fusion)” gave an MFI in assay [1] of 11.9. In assay [2], this molecule came in with a Fold Increase over WT CD86 ECD of 0.5 fold and an MFI of 9360.

B1: variant CD86 IgV-Fc M60K/H90L (IgV SEQ ID NO: 128) (Fc fusion)
chain: APLKIQAYFNETADLPCQFANSQNQSLSELVVFWQDQENLVLNEVYLGKEKFDSVHSKYKGRTSFDSDSWTLRLHNLQIKDKGLYQCIILHKKPTGMIRIHQMNSELSVLAGSGGGGSEPKSSDKTHTCPPCPAPEAEGAPSVFLFPPKPKDTLMISRTPEVTCVVVDVSHEDPEVKFNWYVDGVEVHNAKTKPREEQYNSTYRVVSVLTVLHQDWLNGKEYKCKVSNKALPAPIEKTISKAKGQPREPQVYTLPPSRDELTKNQVSLTCLVKGFYPSDIAVEWESNGQPENNYKTTPPVLDSDGSFFLYSKLTVDKSRWQQGNVFSCSVMHEALHNHYTQKSLSLSPG
Molecule B1 yielded an MFI in assay [3] of 20.

B2: variant CD86 IgV-Fc Q25L/Q86R/H90L (IgV SEQ ID NO: 126) (Fc fusion)
chain: APLKIQAYFNETADLPCQFANSQNLSLSELVVFWQDQENLVLNEVYLGKEKFDSVHSKYMGRTSFDSDSWTLRLHNLQIKDKGLYRCIILHKKPTGMIRIHQMNSELSVLAGSGGGGSEPKSSDKTHTCPPCPAPEAEGAPSVFLFPPKPKDTLMISRTPEVTCVVVDVSHEDPEVKFNWYVDGVEVHNAKTKPREEQYNSTYRVVSVLTVLHQDWLNGKEYKCKVSNKALPAPIEKTISKAKGQPREPQVYTLPPSRDELTKNQVSLTCLVKGFYPSDIAVEWESNGQPENNYKTTPPVLDSDGSFFLYSKLTVDKSRWQQGNVFSCSVMHEALHNHYTQKSLSLSPG
For B2, in assay [4], the “Fold Increase over WT CD86 ECD, Jurkat/IL2 Luciferase Assay (10 nM OKT3 + 50 nM CD86 IgV-Fc)” value is 6.1 fold and the “Relative luminescence units (RLU), Jurkat/IL2 Luciferase Assay (10 nM OKT3 + 50 nM CD86 IgV-Fc)” value was 800 RLU. In assay [3], the “Fold Increase over WT CD86 ECD” value turned out to be 128 fold and the MFI worked out at 1570. Also, in assay [5], the “Fold Increase over WT CD86 ECD” value is 1.3 fold and the MFI stood at 4940.

B3: formatted PD-1-CD86 stack, FIG. 14A format, SEQ ID NO: 327 homodimer (Fc fusion)
chain: DSPDRPWNPPTFSPALLVVTEGDNATFTCSFSNTSESFVLNWYRMSPSNQTDKLAAFPEDRNQPGQDRRFRVTQLPNGRDYHMSVDRARRNDSGTYLCGAITLAPKVQIDESLRVELRVTERGSGGGGSEPKSSDKTHTCPPCPAPEAEGAPSVFLFPPKPKDTLMISRTPEVTCVVVDVSHEDPEVKFNWYVDGVEVHNAKTKPREEQYNSTYRVVSVLTVLHQDWLNGKEYKCKVSNKALPAPIEKTISKAKGQPREPQVYTLPPSRDELTKNQVSLTCLVKGFYPSDIAVEWESNGQPENNYKTTPPVLDSDGSFFLYSKLTVDKSRWQQGNVFSCSVMHEALHNHYTQKSLSLSPGGGGGSGGGGSGGGGSGGGGSAPLKIQAYFNETADLPCQFANSQNLSLSELVVFWQDQENLVLNEVYLGKEKFDSVHSKYMGRTSFDSDSWTLRLHNLQIKDKGLYRCIILHKKPTGMIRIHQMSSELSVLA
notes: also called variant PD1 ECD - Fc - variant CD86 IgV
B3: the binding result in assay [6] and in assay [7] was “binds” throughout.

B4: formatted PD-1-CD86 stack, FIG. 14D format (heterodimer SEQ ID NOs 328 + 331) (Fc fusion)
chain 1: DSPDRPWNPPTFSPALLVVTEGDNATFTCSFSNTSESFVLNWYRMSPSNQTDKLAAFPEDRNQPGQDRRFRVTQLPNGRDYHMSVDRARRNDSGTYLCGAITLAPKVQIDESLRVELRVTERGSGGGGSEPKSSDKTHTCPPCPAPEAEGAPSVFLFPPKPKDTLMISRTPEVTCVVVDVSHEDPEVKFNWYVDGVEVHNAKTKPREEQYNSTYRVVSVLTVLHQDWLNGKEYKCKVSNKALPAPIEKTISKAKGQPREPQVYTLPPCREEMTKNQVSLWCLVKGFYPSDIAVEWESNGQPENNYKTTPPVLDSDGSFFLYSKLTVDKSRWQQGNVFSCSVMHEALHNHYTQKSLSLSPG
chain 2: DSPDRPWNPPTFSPALLVVTEGDNATFTCSFSNTSESFVLNWYRMSPSNQTDKLAAFPEDRNQPGQDRRFRVTQLPNGRDYHMSVDRARRNDSGTYLCGAITLAPKVQIDESLRVELRVTERGSGGGGSEPKSSDKTHTCPPCPAPEAEGAPSVFLFPPKPKDTLMISRTPEVTCVVVDVSHEDPEVKFNWYVDGVEVHNAKTKPREEQYNSTYRVVSVLTVLHQDWLNGKEYKCKVSNKALPAPIEKTISKAKGQPREPQVCTLPPSREEMTKNQVSLSCAVKGFYPSDIAVEWESNGQPENNYKTTPPVLDSDGSFFLVSKLTVDKSRWQQGNVFSCSVMHEALHNHYTQKSLSLSPGGGGGSGGGGSGGGGSGGGGSAPLKIQAYFNETADLPCQFANSQNLSLSELVVFWQDQENLVLNEVYLGKEKFDSVHSKYMGRTSFDSDSWTLRLHNLQIKDKGLYRCIILHKKPTGMIRIHQMSSELSVLA
notes: Knobs-into-hole heterodimer
In the case of B4, the binding result in assay [6] and in assay [7] was “binds” in each case.

B5: formatted PD-1-CD86 stack, FIG. 14C format (heterodimer SEQ ID NOs 328 + 330) (Fc fusion)
chain 1: DSPDRPWNPPTFSPALLVVTEGDNATFTCSFSNTSESFVLNWYRMSPSNQTDKLAAFPEDRNQPGQDRRFRVTQLPNGRDYHMSVDRARRNDSGTYLCGAITLAPKVQIDESLRVELRVTERGSGGGGSEPKSSDKTHTCPPCPAPEAEGAPSVFLFPPKPKDTLMISRTPEVTCVVVDVSHEDPEVKFNWYVDGVEVHNAKTKPREEQYNSTYRVVSVLTVLHQDWLNGKEYKCKVSNKALPAPIEKTISKAKGQPREPQVYTLPPCREEMTKNQVSLWCLVKGFYPSDIAVEWESNGQPENNYKTTPPVLDSDGSFFLYSKLTVDKSRWQQGNVFSCSVMHEALHNHYTQKSLSLSPG
chain 2: EPKSSDKTHTCPPCPAPEAEGAPSVFLFPPKPKDTLMISRTPEVTCVVVDVSHEDPEVKFNWYVDGVEVHNAKTKPREEQYNSTYRVVSVLTVLHQDWLNGKEYKCKVSNKALPAPIEKTISKAKGQPREPQVCTLPPSREEMTKNQVSLSCAVKGFYPSDIAVEWESNGQPENNYKTTPPVLDSDGSFFLVSKLTVDKSRWQQGNVFSCSVMHEALHNHYTQKSLSLSPGGGGGSGGGGSGGGGSGGGGSAPLKIQAYFNETADLPCQFANSQNLSLSELVVFWQDQENLVLNEVYLGKEKFDSVHSKYMGRTSFDSDSWTLRLHNLQIKDKGLYRCIILHKKPTGMIRIHQMSSELSVLA
notes: Knobs-into-hole heterodimer
Regarding B5, the binding result in assay [6] and in assay [7] was “binds” each time.

B6: formatted PD-1-CD86 stack, FIG. 14A format, SEQ ID NO: 326 homodimer (Fc fusion)
chain: DSPDRPWNPPTFSPALLVVTEGDNATFTCSFSNTSESFVLNWYRMSPSNQTDKLAAFPEDRNQPGQDRRFRVTQLPNGRDYHMSVDRARRNDSGTYLCGAITLAPKVQIDESLRVELRVTERGSGGGGSEPKSSDKTHTCPPCPAPEAEGAPSVFLFPPKPKDTLMISRTPEVTCVVVDVSHEDPEVKFNWYVDGVEVHNAKTKPREEQYNSTYRVVSVLTVLHQDWLNGKEYKCKVSNKALPAPIEKTISKAKGQPREPQVYTLPPSRDELTKNQVSLTCLVKGFYPSDIAVEWESNGQPENNYKTTPPVLDSDGSFFLYSKLTVDKSRWQQGNVFSCSVMHEALHNHYTQKSLSLSPGGGGGSGGGGSGGGGSGGGGSAPLKIQAYFNETADLPCQFANSQNLSLSELVVFWQDQENLVLNEVYLGKEKFDSVHSKYMGRTSFDSDSWTLRLHNLQIKDKGLYRCIILHKKPTGMIRIHQMSSELSVLANFSQPEIVPISNITENVYINLTCSSIHGYPEPKKMSVLLRTKNSTIEYDGVMQKSQDNVTELYDVSISLSVSFPDVTSNMTIFCILETDKTRLLSSPFSIELEDPQPPPDHIP
notes: also called variant PD1 ECD - Fc - variant CD86 ECD
Consider B6, for which the binding result in assay [6] and in assay [7] was “binds” each time.
